Key:
[1] = biological target: T1, 4H235-AA; assay: two-hybrid library CCmax;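 also: natural log of median RNA to DNA barcode read ratio; higher means stronger binding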
T1 chain: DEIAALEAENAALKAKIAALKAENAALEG

[2] = biological target: T2, 4H249-AA; assay: two-hybrid library CCmax; conditions: mean of both orientations;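 also: natural log of median RNA to DNA barcode read ratio; higher means stronger binding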
T2 chain: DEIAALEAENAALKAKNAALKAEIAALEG

[3] = biological target: T3, 4H2580-AA; assay: two-hybrid library CCmax; conditions: mean of both orientations;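 also: natural log of median RNA to DNA barcode read ratio; higher means stronger binding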
T3 chain: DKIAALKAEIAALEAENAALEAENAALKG

[4] = biological target: T4, 4H2604-AA; assay: two-hybrid library CCmax; conditions: mean of both orientations;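 also: natural log of median RNA to DNA barcode read ratio; higher means stronger binding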
T4 chain: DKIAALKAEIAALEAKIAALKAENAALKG

[5] = biological target: T5, 4H2621-AA; assay: two-hybrid library CCmax; conditions: mean of both orientations;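 also: natural log of median RNA to DNA barcode read ratio; higher means stronger binding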
T5 chain: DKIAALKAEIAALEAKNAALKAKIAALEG

[6] = biological target: T6, 4H2760-AA; assay: two-hybrid library CCmax; conditions: mean of both orientations;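 also: natural log of median RNA to DNA barcode read ratio; higher means stronger binding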
T6 chain: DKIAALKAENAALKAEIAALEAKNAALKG

[7] = biological target: T7, 4H2774-AA; assay: two-hybrid library CCmax; conditions: mean of both orientations
T7 chain: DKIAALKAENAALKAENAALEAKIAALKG

[8] = biological target: T8, 4H2903-AA; assay: two-hybrid library CCmax; conditions: mean of both orientations
T8 chain: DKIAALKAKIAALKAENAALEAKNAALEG

[9] = biological target: T9, 4H2947-AA; assay: two-hybrid library CCmax; conditions: mean of both orientations
T9 chain: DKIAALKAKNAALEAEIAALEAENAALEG

[10] = biological target: T10, 4H2961-AA; assay: two-hybrid library CCmax; conditions: mean of both orientations
T10 chain: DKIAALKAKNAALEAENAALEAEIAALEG

[11] = biological target: T11, 4H3049-AA; assay: two-hybrid library CCmax; conditions: mean of both orientations
T11 chain: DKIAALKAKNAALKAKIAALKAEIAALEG

[12] = biological target: T12, 4H3094-AA; assay: two-hybrid library CCmax; conditions: mean of both orientations
T12 chain: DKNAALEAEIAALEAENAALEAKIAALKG

[13] = biological target: T13, 4H324-AA; assay: two-hybrid library CCmax; conditions: mean of both orientations
T13 chain: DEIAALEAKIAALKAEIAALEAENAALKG

[14] = biological target: T14, 4H341-AA; assay: two-hybrid library CCmax; conditions: mean of both orientations
T14 chain: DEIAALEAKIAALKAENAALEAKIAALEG

[15] = biological target: T15, 4H3449-AA; assay: two-hybrid library CCmax; conditions: mean of both orientations
T15 chain: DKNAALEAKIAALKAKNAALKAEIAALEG

[16] = biological target: T16, 4H3619-AA; assay: two-hybrid library CCmax; conditions: mean of both orientations
T16 chain: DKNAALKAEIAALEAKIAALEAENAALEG

[17] = biological target: T17, 4H3629-AA; assay: two-hybrid library CCmax; conditions: mean of both orientations
T17 chain: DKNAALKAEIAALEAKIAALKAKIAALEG

[18] = biological target: T18, 4H3777-AA; assay: two-hybrid library CCmax; conditions: mean of both orientations
T18 chain: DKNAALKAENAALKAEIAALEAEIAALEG

[19] = biological target: T19, 4H380-AA; assay: two-hybrid library CCmax; conditions: mean of both orientations
T19 chain: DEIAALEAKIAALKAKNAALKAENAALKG

[20] = biological target: T20, 4H3915-AA; assay: two-hybrid library CCmax; conditions: mean of both orientations
T20 chain: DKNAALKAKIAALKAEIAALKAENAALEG

[21] = biological target: T21, 4H3974-AA; assay: two-hybrid library CCmax; conditions: mean of both orientations
T21 chain: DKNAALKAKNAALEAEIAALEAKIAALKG

[22] = biological target: T22, 4H432-AA; assay: two-hybrid library CCmax; conditions: mean of both orientations
T22 chain: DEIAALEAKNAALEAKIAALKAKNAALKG

[23] = biological target: T23, 4H446-AA; assay: two-hybrid library CCmax; conditions: mean of both orientations
T23 chain: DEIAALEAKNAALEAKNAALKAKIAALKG

[24] = biological target: T24, 4H63-AA; assay: two-hybrid library CCmax; conditions: mean of both orientations
T24 chain: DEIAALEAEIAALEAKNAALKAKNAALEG

[25] = biological target: T25, O2; assay: two-hybrid library CC0; conditions: mean of both orientations
T25 chain: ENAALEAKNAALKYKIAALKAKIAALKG

[26] = biological target: T26, O3; assay: two-hybrid library CC0; conditions: mean of both orientations
T26 chain: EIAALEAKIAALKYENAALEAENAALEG

[27] = biological target: T27, O4; assay: two-hybrid library CC0; conditions: mean of both orientations
T27 chain: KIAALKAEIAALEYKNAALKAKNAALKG

[28] = biological target: T28, O5; assay: two-hybrid library CC0; conditions: mean of both orientations
T28 chain: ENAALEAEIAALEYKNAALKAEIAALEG

[29] = biological target: T29, O6; assay: two-hybrid library CC0; conditions: mean of both orientations
T29 chain: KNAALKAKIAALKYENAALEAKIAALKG

[30] = biological target: T30, O7; assay: two-hybrid library CC0; conditions: mean of both orientations
T30 chain: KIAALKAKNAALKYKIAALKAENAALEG

[31] = biological target: T31, O8; assay: two-hybrid library CC0; conditions: mean of both orientations
T31 chain: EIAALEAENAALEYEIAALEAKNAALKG

[32] = biological target: T32, O9; assay: two-hybrid library CC0; conditions: mean of both orientations
T32 chain: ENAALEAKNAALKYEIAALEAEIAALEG

[33] = biological target: T33, 4H3175-bH; assay: two-hybrid library CCNG1
T33 chain: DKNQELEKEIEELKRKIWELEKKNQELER

[34] = biological target: T34, 4H3277-bH; assay: two-hybrid library CCNG1
T34 chain: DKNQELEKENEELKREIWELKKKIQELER

[35] = biological target: T35, 4H3298-bH; assay: two-hybrid library CCNG1
T35 chain: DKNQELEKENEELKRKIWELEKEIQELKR

[36] = biological target: T36, 4H3462-bH; assay: two-hybrid library CCNG1
T36 chain: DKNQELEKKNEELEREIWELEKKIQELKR

[37] = biological target: T37, 4H3497-bH; assay: two-hybrid library CCNG1
T37 chain: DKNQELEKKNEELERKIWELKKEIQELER

[38] = biological target: T38, 4H3613-bH; assay: two-hybrid library CCNG1
T38 chain: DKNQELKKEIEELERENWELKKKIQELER

[39] = biological target: T39, 4H3628-bH; assay: two-hybrid library CCNG1
T39 chain: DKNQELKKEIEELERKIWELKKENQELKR

[40] = biological target: T40, 4H3926-bH; assay: two-hybrid library CCNG1
T40 chain: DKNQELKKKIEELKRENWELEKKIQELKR

[41] = biological target: T41, 4H591-bH; assay: two-hybrid library CCNG1
T41 chain: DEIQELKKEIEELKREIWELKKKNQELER

[42] = biological target: T42, 4H626-bH; assay: two-hybrid library CCNG1
T42 chain: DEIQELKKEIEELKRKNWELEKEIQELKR

[43] = biological target: T43, 4H906-bH; assay: two-hybrid library CCNG1
T43 chain: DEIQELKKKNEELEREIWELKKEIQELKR

[44] = biological target: T44, 4H918-bH; assay: two-hybrid library CCNG1
T44 chain: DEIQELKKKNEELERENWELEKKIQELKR

[45] = biological target: T45, P5A; assay: two-hybrid library CCNG1
T45 chain: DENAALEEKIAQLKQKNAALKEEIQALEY

[46] = biological target: T46, P6A; assay: two-hybrid library CCNG1; conditions: mean of both orientations
T46 chain: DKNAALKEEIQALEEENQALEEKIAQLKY

[47] = biological target: T47, P7A; assay: two-hybrid library CCNG1
T47 chain: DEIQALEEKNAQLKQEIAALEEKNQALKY

[48] = biological target: T48, P8A; assay: two-hybrid library CCNG1
T48 chain: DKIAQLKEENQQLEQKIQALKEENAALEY

[49] = biological target: T49, P9A; assay: two-hybrid library CCNG1
T49 chain: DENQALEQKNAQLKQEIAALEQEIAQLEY

[50] = biological target: T50, 4H3354-bH; assay: two-hybrid library CCNG1
T50 chain: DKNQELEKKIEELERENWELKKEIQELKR

[51] = biological target: T51, 4H338-bH; assay: two-hybrid library CCNG1
T51 chain: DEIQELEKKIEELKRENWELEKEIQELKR

[52] = biological target: T52, 4H3427-bH; assay: two-hybrid library CCNG1
T52 chain: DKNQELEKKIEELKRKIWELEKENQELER

[53] = biological target: T53, 4H3782-bH; assay: two-hybrid library CCNG1
T53 chain: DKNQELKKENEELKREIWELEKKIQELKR

[54] = biological target: T54, 4H3855-bH; assay: two-hybrid library CCNG1
T54 chain: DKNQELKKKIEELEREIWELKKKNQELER

[55] = biological target: T55, 4H4001-bH; assay: two-hybrid library CCNG1
T55 chain: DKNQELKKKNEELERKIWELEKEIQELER

[56] = biological target: T56, 4H454-bH; assay: two-hybrid library CCNG1
T56 chain: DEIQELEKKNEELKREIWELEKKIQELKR

[57] = biological target: T57, 4H496-bN; assay: two-hybrid library CCNG1
T57 chain: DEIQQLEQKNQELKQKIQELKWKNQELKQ

[58] = biological target: T58, 4H568-bH; assay: two-hybrid library CCNG1
T58 chain: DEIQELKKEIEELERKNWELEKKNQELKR

[59] = biological target: T59, 4H607-bH; assay: two-hybrid library CCNG1
T59 chain: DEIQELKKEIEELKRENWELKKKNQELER

[60] = biological target: T60, 4H687-bH; assay: two-hybrid library CCNG1
T60 chain: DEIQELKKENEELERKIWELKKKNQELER

[61] = biological target: T61, 4H717-bH; assay: two-hybrid library CCNG1
T61 chain: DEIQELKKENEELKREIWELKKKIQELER

[62] = biological target: T62, 4H72-bH; assay: two-hybrid library CCNG1
T62 chain: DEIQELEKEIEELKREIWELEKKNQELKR

[63] = biological target: T63, 4H754-bH; assay: two-hybrid library CCNG1
T63 chain: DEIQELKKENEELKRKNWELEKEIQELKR

[64] = biological target: T64, 4H797-bH; assay: two-hybrid library CCNG1
T64 chain: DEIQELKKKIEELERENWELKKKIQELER

[65] = biological target: T65, 4H883-bH; assay: two-hybrid library CCNG1
T65 chain: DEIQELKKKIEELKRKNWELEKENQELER

[66] = biological target: T66, 4H908-bH; assay: two-hybrid library CCNG1
T66 chain: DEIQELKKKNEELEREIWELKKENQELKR

[67] = biological target: T67, 4H953-bH; assay: two-hybrid library CCNG1
T67 chain: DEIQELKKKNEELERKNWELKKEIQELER

[68] = biological target: T68, 4H967-bH; assay: two-hybrid library CCNG1
T68 chain: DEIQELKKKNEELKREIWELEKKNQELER

B1: 4H235-AA (peptide)
chain: DEIAALEAENAALKAKIAALKAENAALEG
- interaction score [1]: -1.14
- interaction score [2]: -1.7
- interaction score [3]: -0.865
- interaction score [4]: -1.14
- interaction score [5]: -0.985
- interaction score [6]: 2.27
- interaction score [7]: 1.48
- interaction score [8]: -1.68
- interaction score [9]: 0.136
- interaction score [10]: -1.27
- interaction score [11]: -0.98
- interaction score [12]: 0.0844
- interaction score [13]: -1.12
- interaction score [14]: -0.261
- interaction score [15]: 0.816
- interaction score [16]: -1.48
- interaction score [17]: -1.09
- interaction score [18]: 0.00925
- interaction score [19]: -1.71
- interaction score [20]: -1.49
- interaction score [21]: -0.571
- interaction score [22]: -0.27
- interaction score [23]: -1.78
- interaction score [24]: -1.28

B2: O2 (peptide)
chain: ENAALEAKNAALKYKIAALKAKIAALKG
- interaction score [25]: -2.68
- interaction score [26]: -2.68
- interaction score [27]: -2.74
- interaction score [28]: -2.66
- interaction score [29]: -2.73
- interaction score [30]: -2.83
- interaction score [31]: -2.05
- interaction score [32]: -1.04

B3: 4H3175-bH (peptide)
chain: DKNQELEKEIEELKRKIWELEKKNQELER
- interaction score [33]: 0.103
- interaction score [34]: -0.0103
- interaction score [35]: -0.132
- interaction score [36]: 0.891
- interaction score [37]: 0.402
- interaction score [38]: -0.475
- interaction score [39]: -0.799
- interaction score [40]: -0.189
- interaction score [41]: -2.15
- interaction score [42]: -1.62
- interaction score [43]: 0.787
- interaction score [44]: -1.69

B4: P5A (peptide)
chain: DENAALEEKIAQLKQKNAALKEEIQALEY
- interaction score [45]: -1.41
- interaction score [46]: 1.19
- interaction score [47]: -1.31
- interaction score [48]: -1.04
- interaction score [49]: -1.38

B5: 4H3354-bH (peptide)
chain: DKNQELEKKIEELERENWELKKEIQELKR
- interaction score [50]: 1.31
- interaction score [51]: 0.838
- interaction score [52]: 0.568
- interaction score [53]: -0.062
- interaction score [54]: -0.383
- interaction score [55]: -0.37
- interaction score [56]: 0.274
- interaction score [57]: 0.755
- interaction score [58]: -1.08
- interaction score [59]: -1.77
- interaction score [60]: -2.6
- interaction score [61]: 0.648
- interaction score [62]: -1.11
- interaction score [63]: -0.2
- interaction score [64]: 0.357
- interaction score [65]: -0.344
- interaction score [66]: -1.61
- interaction score [44]: 0.89
- interaction score [67]: -1.49
- interaction score [68]: -0.105

— PMC10397247
